# Source: patent US20150329627A1 (Eli Lilly, published 2015)
# T1: human angiopoietin-2 (Ang2) (human, UniProt O15123 19-496)
# T1 sequence: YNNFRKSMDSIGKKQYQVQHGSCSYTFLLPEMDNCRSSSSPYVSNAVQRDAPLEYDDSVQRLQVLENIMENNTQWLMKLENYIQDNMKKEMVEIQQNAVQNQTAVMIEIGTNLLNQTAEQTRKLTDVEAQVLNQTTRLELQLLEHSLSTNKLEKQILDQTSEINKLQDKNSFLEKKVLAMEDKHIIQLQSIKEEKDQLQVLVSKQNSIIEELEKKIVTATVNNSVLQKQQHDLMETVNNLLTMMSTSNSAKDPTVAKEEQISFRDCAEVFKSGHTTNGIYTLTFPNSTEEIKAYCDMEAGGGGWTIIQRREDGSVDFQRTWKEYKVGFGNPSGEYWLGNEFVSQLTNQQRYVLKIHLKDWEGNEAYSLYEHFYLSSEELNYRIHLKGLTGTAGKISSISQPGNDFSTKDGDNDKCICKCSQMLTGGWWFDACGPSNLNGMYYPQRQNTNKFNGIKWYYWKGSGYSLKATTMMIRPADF
# T2: cyno Ang2 (cynomolgus, UniProt A0A2K5VNX6 19-496)
# T2 construct: also called cynomolgus Ang2
# T2 sequence: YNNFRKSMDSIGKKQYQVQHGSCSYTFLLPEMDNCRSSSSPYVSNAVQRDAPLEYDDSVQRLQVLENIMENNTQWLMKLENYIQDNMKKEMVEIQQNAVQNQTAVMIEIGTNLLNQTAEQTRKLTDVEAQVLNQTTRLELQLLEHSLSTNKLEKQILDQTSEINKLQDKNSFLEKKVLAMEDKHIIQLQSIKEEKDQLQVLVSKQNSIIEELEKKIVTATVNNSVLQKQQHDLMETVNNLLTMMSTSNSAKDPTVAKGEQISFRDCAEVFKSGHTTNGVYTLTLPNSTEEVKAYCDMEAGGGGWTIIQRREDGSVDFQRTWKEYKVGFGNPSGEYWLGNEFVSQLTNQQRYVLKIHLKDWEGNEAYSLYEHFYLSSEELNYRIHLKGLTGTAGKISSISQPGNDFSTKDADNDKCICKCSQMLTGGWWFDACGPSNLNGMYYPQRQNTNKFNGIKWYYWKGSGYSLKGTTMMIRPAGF
# T3: mouse Ang2 (mouse, UniProt O35608 19-496, limits assumed)
# T3 sequence (looked up): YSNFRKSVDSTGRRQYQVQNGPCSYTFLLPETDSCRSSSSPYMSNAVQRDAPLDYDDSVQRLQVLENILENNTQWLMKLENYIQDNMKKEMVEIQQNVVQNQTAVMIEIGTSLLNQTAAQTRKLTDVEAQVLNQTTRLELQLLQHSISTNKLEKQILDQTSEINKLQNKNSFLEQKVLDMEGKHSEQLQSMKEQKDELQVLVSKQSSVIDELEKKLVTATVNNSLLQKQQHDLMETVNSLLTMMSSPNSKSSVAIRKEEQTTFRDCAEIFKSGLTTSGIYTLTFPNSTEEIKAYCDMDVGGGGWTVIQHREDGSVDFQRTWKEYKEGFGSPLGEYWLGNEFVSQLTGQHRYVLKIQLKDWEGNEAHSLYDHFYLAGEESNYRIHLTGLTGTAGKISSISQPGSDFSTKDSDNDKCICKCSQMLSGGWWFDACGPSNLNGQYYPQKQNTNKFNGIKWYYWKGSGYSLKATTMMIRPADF
# T4: rabbit Ang2 (rabbit, UniProt G1T9B3 19-496)
# T4 sequence: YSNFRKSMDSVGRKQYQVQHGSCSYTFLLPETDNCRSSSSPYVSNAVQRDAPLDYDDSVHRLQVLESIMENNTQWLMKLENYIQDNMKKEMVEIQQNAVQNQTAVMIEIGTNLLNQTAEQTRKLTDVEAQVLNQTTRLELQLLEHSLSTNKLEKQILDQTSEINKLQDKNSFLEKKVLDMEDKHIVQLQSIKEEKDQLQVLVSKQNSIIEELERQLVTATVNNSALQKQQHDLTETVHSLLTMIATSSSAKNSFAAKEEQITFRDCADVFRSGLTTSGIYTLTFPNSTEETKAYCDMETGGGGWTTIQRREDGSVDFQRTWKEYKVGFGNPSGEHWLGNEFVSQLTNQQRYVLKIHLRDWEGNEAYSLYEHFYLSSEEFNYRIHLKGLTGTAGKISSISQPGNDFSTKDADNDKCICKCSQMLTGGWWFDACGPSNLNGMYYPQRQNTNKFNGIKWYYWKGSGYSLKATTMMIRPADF
# T5: dog Ang2 (dog, UniProt A0A8J8 19-495, limits assumed)
# T5 sequence (looked up): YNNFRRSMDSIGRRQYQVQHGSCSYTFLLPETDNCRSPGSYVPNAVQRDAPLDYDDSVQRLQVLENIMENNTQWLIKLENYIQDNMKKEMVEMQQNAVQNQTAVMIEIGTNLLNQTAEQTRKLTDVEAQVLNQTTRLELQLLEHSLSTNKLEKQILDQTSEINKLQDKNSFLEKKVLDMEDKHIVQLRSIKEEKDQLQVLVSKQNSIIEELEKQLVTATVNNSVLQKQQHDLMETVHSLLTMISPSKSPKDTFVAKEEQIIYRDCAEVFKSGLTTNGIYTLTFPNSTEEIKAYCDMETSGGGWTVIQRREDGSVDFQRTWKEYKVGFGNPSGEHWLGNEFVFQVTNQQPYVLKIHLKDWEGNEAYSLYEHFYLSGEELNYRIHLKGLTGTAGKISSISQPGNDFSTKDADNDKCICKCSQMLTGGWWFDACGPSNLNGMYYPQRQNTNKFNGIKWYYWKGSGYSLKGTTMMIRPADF
# T6: rat Ang2 (rat, UniProt O35462 19-496, limits assumed)
# T6 sequence (looked up): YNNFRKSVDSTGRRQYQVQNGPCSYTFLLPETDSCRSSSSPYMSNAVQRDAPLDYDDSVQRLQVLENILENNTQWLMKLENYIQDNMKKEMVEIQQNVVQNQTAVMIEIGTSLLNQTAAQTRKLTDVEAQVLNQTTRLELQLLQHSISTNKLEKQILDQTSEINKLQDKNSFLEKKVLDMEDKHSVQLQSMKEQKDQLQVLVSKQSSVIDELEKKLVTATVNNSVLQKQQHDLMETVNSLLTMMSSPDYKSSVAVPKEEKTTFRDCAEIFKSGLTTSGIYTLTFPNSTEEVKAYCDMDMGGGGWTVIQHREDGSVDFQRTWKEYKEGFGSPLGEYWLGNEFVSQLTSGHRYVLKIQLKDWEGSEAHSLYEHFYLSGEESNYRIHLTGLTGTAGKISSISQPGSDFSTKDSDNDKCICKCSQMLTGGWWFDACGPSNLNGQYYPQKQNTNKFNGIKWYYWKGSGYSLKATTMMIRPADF
# Tests used:
# [1] = molecular target: T1, human angiopoietin-2 (Ang2); assay: cell-based or functional assay
# [2] = molecular target: T1, human angiopoietin-2 (Ang2); assay: Biacore SPR, 37 C, n = 3
# [3] = molecular target: T2, cyno Ang2; assay: Biacore SPR, 37 C, n = 3
# [4] = molecular target: T3, mouse Ang2; assay: Biacore SPR, 37 C, n = 3
# [5] = molecular target: T4, rabbit Ang2; assay: Biacore SPR, 37 C, n = 3
# [6] = molecular target: T5, dog Ang2; assay: Biacore SPR, 37 C, n = 3
# [7] = molecular target: T6, rat Ang2; assay: Biacore SPR, 37 C, n = 3
# [8] = molecular target: T1, human angiopoietin-2 (Ang2); assay: KinExA; reference H1H685P-293HEK
# [9] = molecular target: T1, human angiopoietin-2 (Ang2); assay: Biacore SPR, 25 C; reference 3.19.3-293HEK
# [10] = molecular target: T1, human angiopoietin-2 (Ang2); assay: Biacore SPR, 25 C; reference H1H685P-293HEK
# [11] = molecular target: T1, human angiopoietin-2 (Ang2); assay: Biacore SPR, 25 C, antibody captured on Protein A, soluble Ang2 injected
# [12] = molecular target: T1, human angiopoietin-2 (Ang2); assay: KinExA 3200, solution equilibrium at 25 C, human Ang2 on sepharose beads
# [13] = molecular target: T1, human angiopoietin-2 (Ang2); assay: blocking ELISA: antibody titrated against biotinylated human Ang2 (100 ng/ml), binding to coated human Tie2-Fc read
binder,measurement,setting,value
"Antibody A (antibody, human IgG4 S228P, kappa, F234A L235A, V domains shown) VH: QVQLVQSGAEVKKPGASVKVSCKASGYSFTDYNMVWVRQAPGQGLEWMGYIDPYNGGTGYNQKFEGRVTMTTDTSTSTAYMELRSLRSDDTAVYYCARTRDRYDVWYFDVWGQGTLVTVSS VL: DIQMTQSPSSVSASVGDRVTITCKASQDVYIAVAWYQQKPGKAPKLLIYWASTRDTGVPSRFSGSGSGTDFTLTISSLQPEDFATYYCHQYSSYPPTFGGGTKVEIKR","IC50, neutralization of human Ang2 induced phospho-Tie-2 in CHO-Tie-2 cells",[1],0.773 nM
same,Kd,[2],0.08 nM
same,koff,[2],7e-05 s⁻¹
same,kon,[2],1e+06 M⁻¹ s⁻¹
same,Kd,[3],0.107 nM
same,koff,[3],0.00029 s⁻¹
same,kon,[3],2.7e+06 M⁻¹ s⁻¹
same,Kd,[4],0.109 nM
same,koff,[4],0.00011 s⁻¹
same,kon,[4],1e+06 M⁻¹ s⁻¹
same,Kd,[5],0.21 nM
same,koff,[5],0.00015 s⁻¹
same,kon,[5],730000 M⁻¹ s⁻¹
same,Kd,[6],0.14 nM
same,koff,[6],0.00011 s⁻¹
same,kon,[6],790000 M⁻¹ s⁻¹
same,Kd,[7],0.18 nM
same,koff,[7],0.0002 s⁻¹
same,kon,[7],1.2e+06 M⁻¹ s⁻¹
same,fold lower KD than H1H685P-293HEK,[8],~8 fold
same,fold lower KD than 3.19.3-293HEK,[9],~8 fold
same,fold lower KD than H1H685P-293HEK,[10],~4 fold
same,Kd,[11],0.038 nM
same,koff,[11],2.8e-05 s⁻¹
same,kon,[11],747000 M⁻¹ s⁻¹
same,Kd,[12],0.00011 nM
same,IC50,[13],0.027 nM
